# Assay results as given in paper PMC7105911 (Journal of Molecular Biology, 2011).
# Residue numbers refer to the chain shown, from its start. Where “and” joins values, the source holds several entries; their conditions need not be identical. Equal entries are not always repeated.
# T1: SC_2cx5 (side-chain grafting 2F5 epitope scaffold on parent PDB 2cx5) (designed scaffold on Thermus …)
# T1 chain: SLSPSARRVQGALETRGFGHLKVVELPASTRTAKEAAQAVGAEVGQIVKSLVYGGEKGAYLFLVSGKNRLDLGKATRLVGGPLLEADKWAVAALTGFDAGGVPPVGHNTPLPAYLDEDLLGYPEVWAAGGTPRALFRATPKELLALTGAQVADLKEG
# T2: SC_1wnu (side-chain grafting 2F5 epitope scaffold on parent PDB 1wnu) (designed scaffold on Pyrococcus …)
# T2 chain: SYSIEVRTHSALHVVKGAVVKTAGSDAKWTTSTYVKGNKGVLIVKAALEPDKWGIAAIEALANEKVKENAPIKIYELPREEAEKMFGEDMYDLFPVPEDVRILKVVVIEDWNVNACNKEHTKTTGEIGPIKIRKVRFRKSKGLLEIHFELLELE
# T3: BB_1wnu_001 (backbone grafting 2F5 epitope scaffold on parent PDB 1wnu) (designed scaffold on Pyrococcus …)
# T3 chain: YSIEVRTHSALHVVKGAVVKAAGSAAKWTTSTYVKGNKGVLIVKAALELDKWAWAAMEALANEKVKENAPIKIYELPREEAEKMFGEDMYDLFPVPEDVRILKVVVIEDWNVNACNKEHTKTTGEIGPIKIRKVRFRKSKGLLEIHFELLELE
# T4: BB_2cx5_001 (backbone grafting 2F5 epitope scaffold on parent PDB 2cx5) (designed scaffold on Thermus …)
# T4 chain: T1 chain with V52A, E56S, T76A, G81T, P82D, A86L, D98A
# B1: 2F5 monoclonal antibody (2F5 IgG) (antibody, V domains shown)
# VH: RITLKESGPPLVKPTQTLTLTCSFSGFSLSDFGVGVGWIRQPPGKALEWLAIIYSDDDKRYSPSLNTRLTITKDTSKNQVVLVMTRVSPVDTATYFCAHRRGPTTLFGVPIARGPVNAMDVWGQGITVTISS
# VL: ALQLTQSPSSLSASVGDRITITCRASQGVTSALAWYRQKPGSPPQLLIYDASSLESGVPSRFSGSGSGTEFTLTISTLRPEDFATYYCQQLHFYPHTFGGGTRVDVR
# Tests used:
# Test in all cases: SPR
# [1] = molecular target: T1, SC_2cx5 (side-chain grafting 2F5 …)
# [2] = molecular target: T2, SC_1wnu (side-chain grafting 2F5 …)
# [3] = molecular target: T3, BB_1wnu_001 (backbone grafting 2F5 …)
# [4] = molecular target: T4, BB_2cx5_001 (backbone grafting 2F5 …)
binder,measurement,setting,value
B1,Kd,[1],40.2 nM and 38.3 nM
same,Kd,[2],91 nM
same,"Kd kinetic, step 1 (conformational change model)",[2],0.000109 mM
same,"Kd kinetic, step 2 (conformational change model)",[2],3800 mM
same,Kd,[3],8.3 nM and 8.7 nM
same,Kd,[4],1.4 nM
